Columns and labels:
[1] = molecular target: integrin αvβ3 on CHO cells (CHO-αvβ3) (UniProt P06756); assay: cell adhesion inhibition: CHO-αvβ3 cells to immobilized fibrinogen
[2] = molecular target: integrin αIIbβ3 on human platelets (human) (UniProt P08514); assay: cell-based or functional assay
[3] = molecular target: integrin αIIbβ3 on CHO cells (CHO-αIIbβ3) (UniProt P08514); assay: cell adhesion inhibition: CHO-αIIbβ3 cells to immobilized fibrinogen

Chain of integrin αIIbβ3 on human platelets (human) (P08514 32-1039, chain 1 of 2): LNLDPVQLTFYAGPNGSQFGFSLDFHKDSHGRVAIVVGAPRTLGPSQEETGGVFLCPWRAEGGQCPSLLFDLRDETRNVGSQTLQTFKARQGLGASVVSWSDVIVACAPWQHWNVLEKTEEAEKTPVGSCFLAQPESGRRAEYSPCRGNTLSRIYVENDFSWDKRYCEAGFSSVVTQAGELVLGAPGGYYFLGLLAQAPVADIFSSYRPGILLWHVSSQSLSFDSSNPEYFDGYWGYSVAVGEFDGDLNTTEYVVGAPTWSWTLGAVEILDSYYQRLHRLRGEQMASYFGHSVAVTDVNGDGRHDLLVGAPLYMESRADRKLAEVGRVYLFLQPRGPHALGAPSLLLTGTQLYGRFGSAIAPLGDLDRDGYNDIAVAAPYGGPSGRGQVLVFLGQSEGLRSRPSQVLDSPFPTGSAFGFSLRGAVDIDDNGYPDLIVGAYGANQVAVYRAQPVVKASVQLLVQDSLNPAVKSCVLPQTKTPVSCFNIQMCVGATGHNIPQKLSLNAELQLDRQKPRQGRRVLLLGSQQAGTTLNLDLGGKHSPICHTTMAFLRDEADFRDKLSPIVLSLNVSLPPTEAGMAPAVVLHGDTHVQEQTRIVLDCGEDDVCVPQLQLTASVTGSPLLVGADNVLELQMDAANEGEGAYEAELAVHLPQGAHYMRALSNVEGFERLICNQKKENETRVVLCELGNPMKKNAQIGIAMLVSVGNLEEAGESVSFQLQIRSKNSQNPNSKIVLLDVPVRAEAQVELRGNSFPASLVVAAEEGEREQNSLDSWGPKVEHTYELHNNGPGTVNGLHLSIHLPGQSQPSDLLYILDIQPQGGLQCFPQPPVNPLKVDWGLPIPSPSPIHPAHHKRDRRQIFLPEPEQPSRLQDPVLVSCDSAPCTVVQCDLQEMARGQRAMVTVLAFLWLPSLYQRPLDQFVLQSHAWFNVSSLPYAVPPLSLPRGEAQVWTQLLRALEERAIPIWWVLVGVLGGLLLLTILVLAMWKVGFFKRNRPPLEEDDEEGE
Chain of integrin αIIbβ3 on human platelets (human) (P05106 27-788, chain 2 of 2, further chain): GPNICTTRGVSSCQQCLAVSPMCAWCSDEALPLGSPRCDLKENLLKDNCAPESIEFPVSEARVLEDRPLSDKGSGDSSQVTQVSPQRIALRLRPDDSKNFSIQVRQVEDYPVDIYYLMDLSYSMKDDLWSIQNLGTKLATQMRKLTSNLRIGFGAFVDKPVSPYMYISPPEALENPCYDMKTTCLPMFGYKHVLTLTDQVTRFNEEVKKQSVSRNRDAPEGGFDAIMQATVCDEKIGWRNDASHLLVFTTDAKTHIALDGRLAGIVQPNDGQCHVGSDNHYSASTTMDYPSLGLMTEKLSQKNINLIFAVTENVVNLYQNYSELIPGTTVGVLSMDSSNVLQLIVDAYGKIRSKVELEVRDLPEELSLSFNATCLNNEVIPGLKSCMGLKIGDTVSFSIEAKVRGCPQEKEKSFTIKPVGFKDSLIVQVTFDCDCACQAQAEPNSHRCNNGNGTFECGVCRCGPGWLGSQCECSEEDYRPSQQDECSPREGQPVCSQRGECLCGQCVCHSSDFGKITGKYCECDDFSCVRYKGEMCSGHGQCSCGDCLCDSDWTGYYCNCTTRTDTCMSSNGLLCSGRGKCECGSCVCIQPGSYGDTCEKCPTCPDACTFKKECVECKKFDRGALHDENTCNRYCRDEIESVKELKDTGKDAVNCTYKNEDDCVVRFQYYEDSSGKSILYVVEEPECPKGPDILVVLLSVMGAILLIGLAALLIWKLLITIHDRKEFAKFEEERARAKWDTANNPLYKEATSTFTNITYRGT

Substance	IC50 [1] [nM]	Platelet Aggregation IC50 [2] [nM]	Platelet aggregation IC50 (nM), ADP [2] [nM]	Platelet aggregation IC50 (nM), Collagen [2] [nM]	IC50 [3] [nM]
rhodostomin	13	83.2	81.5	66.8	59.5
trimucrin mutant T/KRRFH	–	–	192	66.9	5600
trimucrin mutant T/MGKWN	–	–	78	48.5	1720
trimucrin mutant T/KR	–	–	141	49.9	6310
trimucrin T/KRRR mutant	–	127	127	30.6	6580
trimucrin mutant T/IEEGK	–	–	1050	217	97600
trimucrin mutant T/KYR	–	–	117	61	1460
trimucrin mutant T/IEEGKRR	–	–	511	57.5	33800
rhodostomin mutant R/K	–	–	152	–	89.8
trimucrin mutant T/KRKR	–	–	138	–	13900
trimucrin mutant T/KWNR	–	–	54.6	52.4	> 692
trimucrin mutant T/KY	–	–	246	44.9	3300
trimucrin mutant T/KF	–	–	154	68.9	5550
trimucrin mutant T/K	–	–	563	105	27300
trimucrin mutant T/KWR	–	–	106	26.3	290
trimucrin mutant T/KS	–	–	1080	562	39900
trimucrin mutant T/KH	–	–	382	99.3	15700
trimucrin mutant T/KFRFH	–	–	120	63.1	3190
trimucrin (TMV-7)	–	–	184	83.8	–
trimucrin mutant T/KRR	–	–	213	30.9	7330
trimucrin mutant T/IEEGKS	–	–	563	632	> 195000
trimucrin mutant T/KHR	–	–	256	80.1	5980
trimucrin mutant T/KWN	–	–	125	67.7	1780

From patent US20200164114A1
